For the experiment, the target named is phosphoubiquitin (UniProt P0CG48 1-76, phosphorylated by PINK1 (Ser65)). The experiment is described as follows: ITC. In general terms: Isothermal titration calorimetry measures the heat released or taken up as one component is titrated into another.

B1: ΔUBL-Parkin (80-465) (domain or fragment)
chain: MNATGGDDPRNAAGGCEREPQSLTRVDLSSSVLPGDSVGLAVILHTDSRKDSPPAGSPAGRSIYNSFYVYCKGPCQRVQPGKLRVQCSTCRQATLTLTQGPSCWDDVLIPNRMSGECQSPHCPGTSAEFFFKCGAHPTSDKETSVALHLIATNSRNITCITCTDVRSPVLVFQCNSRHVICLDCFHLYCVTRLNDRQFVHDPQLGYSLPCVAGCPNSLIKELHHFRILGEEQYNRYQQYGAEECVLQMGGVLCPRPGCGAGLLPEPDQRKVTCEGGNGLGCGFAFCRECKEAYHEGECSAVFEASGTTTQAYRVDERAAEQARWEAASKETIKKTTKPCPRCHVPVEKNGGCMHMKCPQPQCRLEWCWNCGCEWNRVCMGDHWFDV
With B1, the binding result is on record as “binds”.

(Values after article PMC5420311 (Nature structural & molecular biology, 2017).)
